Test results published in US20060036083.

Molecular target: human neutrophil peptide (HNP)-1
Sequence (chain, as listed by the source): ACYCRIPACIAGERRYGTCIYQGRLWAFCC

B1: recombinant ADP-ribosyltransferase (ART)-1 with a FLAG tag, cloned from a rabbit muscle cDNA library (protein)
chain: QSHLVTRRDLFSQETPLDMAPASFDDQYVGCAAAMTAALPHLNLTEFQVNKVYADGWALASSQWRERSAWGPEWGLSTTRLPPPPAGFRDEHGVALLAYTANSPLHKEFNAAVRQAGRSRAHYLQHFSFKTLHFLLTEALQLLGRDQRMPRCRQVFRGVHGLRFRPAGPGTTVRLGGFASASLKNVAAQQFGEDTFFGIWTCLGVPIQGYSFFPGEEEVLIPPFETFQVINASRPAQGPARIYLKALGKRSSYNCEYIKEMQCKSRPCHLDNS
**Q.** For B1, which “ADP-ribosylation of HNP-1 by ART-1 with NAD+ (RP-HPLC, MALDI mass spectrometry)” value is on record?
**A.** The value was “peptides with a mass of 3,983 daltons (retention time 46.5 minutes), consistent with mono-ADP-ribosyl-HNP (calculated mass equivalent to 3,983 daltons), were identified”.
